Reference: publication PMC5771398, “Structural basis for assembly of the CBF3 kinetochore complex” (The EMBO Journal, 2017)

Molecular target: T1, Cep3-Ctf13-Skp1 core complex (S. cerevisiae, UniProt P40969 1-608; P35203 1-478; P52286 1-194, four phosphorylations (intact mass spectrometry); sites not given)
T1 construct: Cep3, budding yeast, full length; Ctf13, budding yeast, full length; Skp1, budding yeast, full length; Core complex as it stood in size-exclusion chromatography with Ndc10 or the Ndc10 NTD (tag cleaved); also called CBF3 core complex; coreWT; source: S. cerevisiae, co-expressed, purified (Strep-Trap, heparin, TEV, anion exchange, SEC); not shown: double-StrepTactin tag, C-terminal, cleaved; …
T1 sequence (P40969 whole entry, chain 1 of 3): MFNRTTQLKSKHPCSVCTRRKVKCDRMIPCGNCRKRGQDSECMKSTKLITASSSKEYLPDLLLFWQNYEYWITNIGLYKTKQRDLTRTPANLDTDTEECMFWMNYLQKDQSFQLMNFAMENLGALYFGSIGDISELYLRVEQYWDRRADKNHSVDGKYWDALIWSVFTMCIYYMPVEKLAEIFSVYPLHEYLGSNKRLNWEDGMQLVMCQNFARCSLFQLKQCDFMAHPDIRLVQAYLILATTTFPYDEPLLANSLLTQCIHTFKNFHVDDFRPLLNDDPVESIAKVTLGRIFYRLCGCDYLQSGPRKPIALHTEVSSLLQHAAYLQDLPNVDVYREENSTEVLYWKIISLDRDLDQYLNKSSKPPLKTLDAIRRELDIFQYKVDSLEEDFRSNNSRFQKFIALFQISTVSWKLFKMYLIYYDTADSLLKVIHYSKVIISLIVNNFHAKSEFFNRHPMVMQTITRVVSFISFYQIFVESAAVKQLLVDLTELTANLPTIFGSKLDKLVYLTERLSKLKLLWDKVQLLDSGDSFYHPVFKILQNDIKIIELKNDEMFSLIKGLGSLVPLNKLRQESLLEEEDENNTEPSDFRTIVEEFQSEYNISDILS
T1 sequence (P35203 whole entry, chain 2 of 3): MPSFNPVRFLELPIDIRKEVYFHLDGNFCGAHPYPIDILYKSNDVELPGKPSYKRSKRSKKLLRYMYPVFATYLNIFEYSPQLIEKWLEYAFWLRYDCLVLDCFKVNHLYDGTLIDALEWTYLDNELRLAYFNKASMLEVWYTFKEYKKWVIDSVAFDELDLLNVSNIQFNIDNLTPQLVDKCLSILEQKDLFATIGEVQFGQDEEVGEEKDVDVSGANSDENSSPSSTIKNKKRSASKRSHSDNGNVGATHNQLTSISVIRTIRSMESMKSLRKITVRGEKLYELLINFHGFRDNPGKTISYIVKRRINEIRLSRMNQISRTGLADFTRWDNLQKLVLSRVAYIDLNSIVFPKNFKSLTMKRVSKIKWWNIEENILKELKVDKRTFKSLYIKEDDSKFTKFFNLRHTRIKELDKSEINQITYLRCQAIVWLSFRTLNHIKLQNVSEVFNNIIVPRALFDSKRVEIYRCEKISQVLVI
T1 sequence (P52286 whole entry, chain 3 of 3): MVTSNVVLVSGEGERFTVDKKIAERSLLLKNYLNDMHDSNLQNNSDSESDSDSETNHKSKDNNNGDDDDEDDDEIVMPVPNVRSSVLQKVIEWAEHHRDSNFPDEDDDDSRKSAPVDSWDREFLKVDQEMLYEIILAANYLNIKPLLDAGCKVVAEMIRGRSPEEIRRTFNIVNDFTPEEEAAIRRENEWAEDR
Test: SEC; Superose 6 in 10 mM HEPES, 300 mM NaCl, 1 mM DTT; core and Ndc10 separated on heparin and combined, tag cleaved; stoichiometry judged by band intensities on SDS-PAGE/Coomassie
Conditions: both partners purified

B1: Ndc10 (natural protein, S. cerevisiae, UniProt P32504 1-956, looked up)
chain: MRSSILFLLKLMKIMDVQQQQEAMSSEDRFQELVDSLKPRTAHQYKTYYTKYIQWCQLNQIIPTPEDNSVNSVPYKDLPISAELIHWFLLDTLITDDKPGEKREETEDLDEEEENSFKIATLKKIIGSLNFLSKLCKVHENPNANIDTKYLESVTKLHTHWIDSQKAITTNETNNTNTQVLCPPLLKVSLNLWNPETNHLSEKFFKTCSEKLRFLVDFQLRSYLNLSFEERSKIRFGSLKLGKRDRDAIIYHKVTHSAEKKDTPGHHQLLALLPQDCPFICPQTTLAAYLYLRFYGIPSVSKGDGFPNLNADENGSLLQDIPILRGKSLTTYPREETFSNYYTTVFRYCHLPYKRREYFNKCNLVYPTWDEDTFRTFFNEENHGNWLEQPEAFAFPDKIPFDFKKIMNFKSPYTSYSTNAKKDPFPPPKDLLVQIFPEIDEYKRHDYEGLSQNSRDFLDLMEVLRERFLSNLPWIYKFFPNHDIFQDPIFGNSDFQSYFNDKTIHSKGSPILSFDILPGFNKIYKNKTNFYSLLIERPSQLTFASSHNPDTHPTQKQESEGPLQMSQLDTTQLNELLKQQSFEYVQFQTLSNFQILLSVFNKIFEKLEMKKSSRGYILHQLNLFKITLDERIKKSKIDDADKFIRDNQPIKKEENIVNEDGPNTSRRTKRPKQIRLLSIADSSDESSTEDSNVFKKDGESIEDGAYGENEDENDSEMQEQLKSMINELINSKISTFLRDQMDQFELKINALLDKILEEKVTRIIEQKLGSHTGKFSTLKRPQLYMTEEHNVGFDMEVPKKLRTSGKYAETVKDNDDHQAMSTTASPSPEQDQEAKSYTDEQEFMLDKSIDSIEGIILEWFTPNAKYANQCVHSMNKSGNKSWRANCEALYKERKSIVEFYIYLVNHESLDRYKAVDICEKLRDQNEGSFSRLAKFLRKWRHDHQNSFDGLLVYLSN
notes: synthetic gene codon-optimised for S. cerevisiae; also called full-length Ndc10; source: S. cerevisiae, co-expressed with the other CBF3 subunits and Sgt1; in lysate (pull-down) and purified (heparin, anion exchange, SEC)
stoichiometry N: 2
